The target of assay [1] is T1, recombinant mouse Axl-Fc (R and D systems, cat No 854-AX/CF) (mouse, UniProt Q00993 19-445).
T1 construct: extracellular domain; Bought protein; also called rmAxl-Fc; murine Axl ECD domain; not shown: Fc portion (coating control with anti-human IgG Fc)
T1 sequence (looked up): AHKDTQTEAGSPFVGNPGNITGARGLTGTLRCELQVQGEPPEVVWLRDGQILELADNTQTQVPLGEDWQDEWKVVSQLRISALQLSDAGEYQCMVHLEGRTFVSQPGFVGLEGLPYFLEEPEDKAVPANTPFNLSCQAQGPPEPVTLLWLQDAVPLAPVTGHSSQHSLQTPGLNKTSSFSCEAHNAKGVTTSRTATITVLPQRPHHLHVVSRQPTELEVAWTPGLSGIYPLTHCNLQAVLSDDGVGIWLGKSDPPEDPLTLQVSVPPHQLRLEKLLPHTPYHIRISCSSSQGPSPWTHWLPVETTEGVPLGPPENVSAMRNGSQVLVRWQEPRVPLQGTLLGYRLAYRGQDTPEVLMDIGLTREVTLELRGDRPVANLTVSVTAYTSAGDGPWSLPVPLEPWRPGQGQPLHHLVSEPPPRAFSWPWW
As to the kind of experiment: ELISA on coated rmAxl-Fc, detection with goat anti-mouse IgG-HRP. As for the experimental part: Briefly, the recombinant mouse Axl-Fc (R and D systems, cat No 854-AX/CF) proteins were coated overnight at 4° C. to Immulon II 96-well plates and, after a 1 h blocking step with a 0.5% gelatine solution, the 1613F12 purified antibody was added for one additional hour at 37° C. at starting concentration of 5 μg/m (3.33 10⁻⁸M). Then ½ serial dilutions were done over 12 columns. Plates were then washed and a goat anti-mouse (Jackson) specific IgG HRP was added for 1 h at 37° C. Reaction development was performed using the TMB substrate solution. […] Coating controls are performed in presence of a goat anti-human IgG Fc polyclonal serum coupled with HRP (Jackson, ref 109-035-098) and/or in presence of a HRP-coupled anti-Histidine antibody (R and D Systems, ref: MAB050H).

The target in assay [2] is T2, recombinant human Axl-Fc (R and D Systems, cat No 154-AL / 154AL/CF) (human, UniProt P30530 26-451).
T2 construct: Bought protein; also called rhAxl-Fc; rh Axl-Fc protein; not shown: human IgG Fc portion (detected with anti-human IgG Fc)
T2 sequence: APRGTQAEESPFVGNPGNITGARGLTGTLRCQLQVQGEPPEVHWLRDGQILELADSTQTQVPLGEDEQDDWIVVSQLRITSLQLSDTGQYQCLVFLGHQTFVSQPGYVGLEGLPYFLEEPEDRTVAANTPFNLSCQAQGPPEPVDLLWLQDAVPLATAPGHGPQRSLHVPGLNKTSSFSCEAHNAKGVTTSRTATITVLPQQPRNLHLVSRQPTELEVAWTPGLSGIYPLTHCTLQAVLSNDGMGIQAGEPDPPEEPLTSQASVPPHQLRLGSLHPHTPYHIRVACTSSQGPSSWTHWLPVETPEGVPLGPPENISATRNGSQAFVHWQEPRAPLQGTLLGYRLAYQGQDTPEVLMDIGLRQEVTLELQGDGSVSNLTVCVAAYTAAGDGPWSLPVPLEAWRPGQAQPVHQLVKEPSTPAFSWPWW
As to the kind of experiment: sandwich ELISA: plate coated with the antibody, rhAxl-Fc titrated (the axis on the sheet reads 'Ab concentration'), detection with a biotinylated anti-Axl antibody and avidin-HRP. The protocol:
First ELISA experiments were realized. In the assay, 96 well plates (Immulon II, Thermo Fisher) were coated with a 5 μg/m of the 1613F12 solution in 1×PBS, overnight at 4° C. […] For the revelation step, a biotinylated-Axl antibody (in house product) was added at 0.85 μg/m for 1 hour at 37° C. This Axl antibody belongs to a distinct epitopic group. Then an avidin-horseradish peroxidase solution at 1/2000° in diluent buffer is added to the wells. Then the TMB substrate solution is added for 5 min. After addition of the peroxydase stop solution, the absorbance at […] was measured with a microplate reader.
A general note: In an ELISA, binding on a coated surface is turned into a signal by an enzyme label.

Assay [3] deals with monkey Axl receptor expressed on the surface of COS7 cells (African green monkey). The assay can be described thus: flow cytometry on COS7 cells, goat anti-mouse Alexa 488. (In general: In flow cytometry, cells or beads pass a laser one at a time.)
For assay [4], the target named is T3, human protein Axl (cellular form on the cell surface) (human, UniProt P30530 26-894).
T3 construct: also called Axl receptor; membrane Axl receptor
T3 sequence: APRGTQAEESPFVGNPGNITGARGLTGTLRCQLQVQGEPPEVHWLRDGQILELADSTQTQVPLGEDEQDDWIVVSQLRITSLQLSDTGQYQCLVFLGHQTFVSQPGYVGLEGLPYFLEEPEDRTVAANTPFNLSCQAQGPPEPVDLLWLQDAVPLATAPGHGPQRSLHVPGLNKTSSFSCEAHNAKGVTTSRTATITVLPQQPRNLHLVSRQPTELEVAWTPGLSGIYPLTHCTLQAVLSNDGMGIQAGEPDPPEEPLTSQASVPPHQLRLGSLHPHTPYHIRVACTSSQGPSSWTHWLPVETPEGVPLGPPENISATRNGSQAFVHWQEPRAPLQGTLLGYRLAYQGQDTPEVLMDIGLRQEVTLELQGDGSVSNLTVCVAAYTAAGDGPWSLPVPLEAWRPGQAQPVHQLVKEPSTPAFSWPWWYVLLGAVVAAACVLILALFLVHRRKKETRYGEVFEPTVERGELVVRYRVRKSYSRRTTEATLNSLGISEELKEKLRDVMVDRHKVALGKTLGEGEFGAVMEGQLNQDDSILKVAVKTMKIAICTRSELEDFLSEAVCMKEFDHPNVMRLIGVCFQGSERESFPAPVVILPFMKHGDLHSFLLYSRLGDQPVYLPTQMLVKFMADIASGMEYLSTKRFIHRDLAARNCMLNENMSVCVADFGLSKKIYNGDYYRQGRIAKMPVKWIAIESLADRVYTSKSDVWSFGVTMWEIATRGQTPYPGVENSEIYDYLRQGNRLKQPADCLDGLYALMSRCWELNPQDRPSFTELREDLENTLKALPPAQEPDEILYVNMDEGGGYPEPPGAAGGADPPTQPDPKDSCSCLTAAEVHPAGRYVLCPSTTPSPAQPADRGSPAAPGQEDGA
As to the kind of experiment: flow cytometry on SN12C cells, anti-mouse IgG Alexa488; table under the graph, unit from the axis Log [M]. The protocol:
Cells were detached using trypsin and cell concentration was adjusted at 1×10⁶ cells/ml in FACS buffer. A volume of 100 μL of cell suspension was incubated with increasing concentrations of either isotype controls or anti-Axl antibodies for 20 min. at 4° C. Cells were then washed three times with FACS buffer and incubated for 20 min. more using either anti-mouse IgG Alexa488 secondary antibody or anti-human IgG Alexa488 secondary antibody at 4° C. in the dark. Cells were washed three times with FACS buffer and resuspended with 100 μl of FACS buffer before adding propidium iodide.

B1: 1613F12 antibody (murine form) (antibody, V domains shown)
VH: EVHLQQSGAELVKPGASVKLSCTASGFNIRDTYIHWVKQRPEQGLEWIGRLDPANGHTKYGPNFQGRATMTSDTSSNTAYLQLSSLTSEDTAVYYCARGAYYYGSSGLFYFDYWGQGTTLSVSS
VL: DVQITQSPSYLATSPGETITINCRASKSISKYLAWYQEKPGKTNKLLIYSGSTLQSGVPSRFSGSGSGTDFTLTISSLEPEDFAMYFCQQHHEYPLTFGAGTELELK
notes: Whole murine monoclonal antibody purified from a hybridoma; a murine IgG1 (9G4) serves as its isotype control; also called m1613F12; monoclonal antibody 1613F12 derived from the hybridoma I-4505
The EC50 (read off the curve) is the concentration needed to bring the measured effect to its halfway point. Usually EC50 stands for the concentration at which the effect is half-maximal. Take B1: in assay [1], the binding result was “no binding (tested: log -7.5 M)”. For the same molecule, the “EC50 (read off the curve)” value in assay [2] was approximately 0.04 µg/mL; in assay [3], 1 nM. The same molecule returned an EC50 in assay [4] of 2.16 nM.

Values taken from US20150037340A1 (PEIRRE FABRE MEDICAMENT, published 2015).
